# T1: Rv2745-S (ClgR, stabilized/soluble form) (Mycobacterium tuberculosis, UniProt P9WMH7 1-112, V111D;A112D)
# T1 sequence: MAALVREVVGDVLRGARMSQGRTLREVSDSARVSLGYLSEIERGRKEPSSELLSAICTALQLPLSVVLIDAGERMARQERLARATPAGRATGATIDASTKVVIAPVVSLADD
# T2: Rv2745-S L24SR25D (DBL) (Mycobacterium tuberculosis, UniProt P9WMH7 1-112, L24S;R25D;V111D;A112D)
# T2 sequence: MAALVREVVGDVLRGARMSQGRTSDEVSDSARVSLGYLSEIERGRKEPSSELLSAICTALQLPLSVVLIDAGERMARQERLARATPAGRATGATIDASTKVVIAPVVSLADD
# Tests used:
# [1] = molecular target: T1, Rv2745-S (ClgR, stabilized/soluble form); assay: EMSA; conditions: protein: recombinant; tags: NusA fusion and His tag (pET50b), removed with HRV3C protease; chain copies: 2; label: 5' Cy5.5; blunt
# Rv2745-S L24SR25D (DBL) = molecular target: T2, Rv2745-S L24SR25D (DBL); assay: EMSA; conditions: protein: recombinant; chain copies: 2; label: 5' Cy5.5; blunt
# [2] = molecular target: T1, Rv2745-S (ClgR, stabilized/soluble form); assay: competition; conditions: protein: recombinant; tags: NusA fusion and His tag (pET50b), removed with HRV3C protease; chain copies: 2; blunt
Binder,binding result [1],binding result (Rv2745-S L24SR25D (DBL)),binding result [2]
clpC1 promoter probe (dsDNA) DNA 1: CGAGCGGCCATCGGTTCGCCGCCAGCGAACGCGGCAAAGTAC DNA 2: GTACTTTGCCGCGTTCGCTGGCGGCGAACCGATGGCCGCTCG,binds,no binding,
clpC1 promoter unlabeled competitor (dsDNA) DNA 1: CGAGCGGCCATCGGTTCGCCGCCAGCGAACGCGGCAAAGTAC DNA 2: GTACTTTGCCGCGTTCGCTGGCGGCGAACCGATGGCCGCTCG,,,binds

# — article PMC2905415, “Characterization of a Clp Protease Gene Regulator and the Reaeration Response in Mycobacterium tuberculosis”
